Laboratory results taken from article PMC12369479.
Where “and” joins values, the source holds several entries; their conditions need not be identical. Equal entries are not always repeated.

Key:
[1] = substrate: CC(C)=CCNc1ncnc2c1ncn2C1OC(CO)C(O)C1O; experiment: ADK activity, coupled reaction with PK and LDH; type: biochemical, Physcomitrella patens; settings: other: PpADK1, 10 mM ATP, pH 7.5, 30 °C
Experimental: (§1) Substrate analogs were purchased from Sigma-Aldrich (www.sigmaaldrich.com). The ADK activity was measured spectrophotometrically on an Agilent 8453 UV-Vis spectrophotometer (www.agilent.com) at 30 °C using a coupled reaction with pyruvate kinase (PK) and lactate dehydrogenase (LDH) (www.sigmaaldrich.com) ([Blondin et al., 1994]). In this assay, PK converts ADP produced by ADK and phosphoenolpyruvate (PEP) to pyruvate. Subsequently, LDH then converts pyruvate to lactate using the coenzyme NADH, with the conversion monitored at 340 nm. The reaction was conducted in 50 mM Tris–HCl buffer at pH 7.5, containing 50 mM KCl, 6 mM MgCl2, 300 µM PEP, 200 µM NADH, 10 mM ATP, 2 U of PK, and 2.5 U of LDH, using various nucleoside substrates. Kinetic constants were determined using GraphPad Prism 8.0 software (www.graphpad.com). Each measurement was performed six times using repetitive purified enzymes. The activities of all five ADKs were also measured by HPLC ([Moffatt et al., 1991]). The reaction mixture comprised 50 mM Tris–HCl pH 7.5, 5 mM MgCl2, 0.5 mM DTT, 30 mM NaF, 5 mM ATP, 40 µM substrate, and 2–150 ng of purified ADK, depending on the isoform. The reaction was incubated at 30 °C for up to 1 h. […]

[2] = substrate: Nc1ncnc2c1ncn2[C@@H]1O[C@H](CO)[C@@H](O)[C@H]1O; experiment: ADK activity, coupled reaction with PK and LDH; type: biochemical, Physcomitrella patens; settings: other: PpADK1, 10 mM ATP, pH 7.5, 30 °C
Experimental: as §1

[3] = substrate: Nc1ncnc2c1ncn2[C@@H]1O[C@H](CO)[C@@H](O)[C@H]1O; experiment: purified protein, by the assay type; settings: pH 7.5, 30 °C
Experimental: The ADK activity was measured spectrophotometrically on an Agilent 8453 UV-Vis spectrophotometer (www.agilent.com) at 30 °C using a coupled reaction with pyruvate kinase (PK) and lactate dehydrogenase (LDH) (www.sigmaaldrich.com) ([Blondin et al., 1994]). In this assay, PK converts ADP produced by ADK and phosphoenolpyruvate (PEP) to pyruvate. Subsequently, LDH then converts pyruvate to lactate using the coenzyme NADH, with the conversion monitored at 340 nm. The reaction was conducted in 50 mM Tris–HCl buffer at pH 7.5, containing 50 mM KCl, 6 mM MgCl2, 300 µM PEP, 200 µM NADH, 10 mM ATP, 2 U of PK, and 2.5 U of LDH, using various nucleoside substrates. Kinetic constants were determined using GraphPad Prism 8.0 software (www.graphpad.com). […] The activities of all five ADKs were also measured by HPLC ([Moffatt et al., 1991]). The reaction mixture comprised 50 mM Tris–HCl pH 7.5, 5 mM MgCl2, 0.5 mM DTT, 30 mM NaF, 5 mM ATP, 40 µM substrate, and 2–150 ng of purified ADK, depending on the isoform. The reaction was incubated at 30 °C for up to 1 h. […] Similarly, the conversion of cytokinin ribosides to monophosphates was followed on a LiChrosphere 60 RP-Select B (5 µm) LiChroCART column 125-4 column equilibrated with 10 mM triethylamine at pH 5.4 plus 10% methanol, and stepwise eluted with 100% methanol.

[4] = substrate: CC(C)=CCNc1ncnc2c1ncn2C1OC(CO)C(O)C1O; experiment: ADK activity, coupled reaction with PK and LDH; type: biochemical, Zea mays; settings: other: ZmADK2, 10 mM ATP, pH 7.5, 30 °C
Experimental: (§2) Substrate analogs were purchased from Sigma-Aldrich (www.sigmaaldrich.com). The ADK activity was measured spectrophotometrically on an Agilent 8453 UV-Vis spectrophotometer (www.agilent.com) at 30 °C using a coupled reaction with pyruvate kinase (PK) and lactate dehydrogenase (LDH) (www.sigmaaldrich.com) ([Blondin et al., 1994]). In this assay, PK converts ADP produced by ADK and phosphoenolpyruvate (PEP) to pyruvate. Subsequently, LDH then converts pyruvate to lactate using the coenzyme NADH, with the conversion monitored at 340 nm. The reaction was conducted in 50 mM Tris–HCl buffer at pH 7.5, containing 50 mM KCl, 6 mM MgCl2, 300 µM PEP, 200 µM NADH, 10 mM ATP, 2 U of PK, and 2.5 U of LDH, using various nucleoside substrates. Kinetic constants were determined using GraphPad Prism 8.0 software (www.graphpad.com). Each measurement was performed six times using repetitive purified enzymes. The activities of all five ADKs were also measured by HPLC ([Moffatt et al., 1991]). The reaction mixture comprised 50 mM Tris–HCl pH 7.5, 5 mM MgCl2, 0.5 mM DTT, 30 mM NaF, 5 mM ATP, 40 µM substrate, and 2–150 ng of purified ADK, depending on the isoform. The reaction was incubated at 30 °C for up to 1 h. […] Similarly, the conversion of cytokinin ribosides to monophosphates was followed on a LiChrosphere 60 RP-Select B (5 µm) LiChroCART column 125-4 column equilibrated with 10 mM triethylamine at pH 5.4 plus 10% methanol, and stepwise eluted with 100% methanol.

[5] = substrate: Nc1ncnc2c1ncn2[C@@H]1O[C@H](CO)[C@@H](O)[C@@H]1O; experiment: ADK activity, coupled reaction with PK and LDH; type: biochemical, Zea mays; settings: other: ZmADK2, 10 mM ATP, pH 7.5, 30 °C
Experimental: as §2

[6] = substrate: Nc1nc2c(ncn2[C@@H]2O[C@H](CO)[C@@H](O)[C@H]2O)c(=O)[nH]1; experiment: ADK activity, coupled reaction with PK and LDH; type: biochemical, Zea mays; settings: other: ZmADK2, 10 mM ATP, pH 7.5, 30 °C
Experimental: as §2

[7] = substrate: O=c1[nH]c(=O)c2ncn([C@@H]3O[C@H](CO)[C@@H](O)[C@H]3O)c2[nH]1; experiment: ADK activity, coupled reaction with PK and LDH; type: biochemical, Zea mays; settings: other: ZmADK2, 10 mM ATP, pH 7.5, 30 °C
Experimental: as §2

[8] = substrate: OC[C@H]1O[C@@H](n2cnc3c(O)ncnc32)[C@H](O)[C@@H]1O; experiment: ADK activity, coupled reaction with PK and LDH; type: biochemical, Zea mays; settings: other: ZmADK2, 10 mM ATP, pH 7.5, 30 °C
Experimental: as §2

[9] = substrate: Nc1ncnc2c1ncn2[C@@H]1O[C@H](CO)C[C@H]1O; experiment: ADK activity, coupled reaction with PK and LDH; type: biochemical, Zea mays; settings: other: ZmADK2, 10 mM ATP, pH 7.5, 30 °C
Experimental: as §2

[10] = substrate: Nc1ncnc2c1ncn2[C@@H]1O[C@H](CO)[C@@H](O)[C@H]1O; experiment: ADK activity, coupled reaction with PK and LDH; type: biochemical, Zea mays; settings: other: ZmADK2, 10 mM ATP, pH 7.5, 30 °C
Experimental: as §2

[11] = substrate: Nc1ccn([C@@H]2O[C@H](CO)[C@@H](O)[C@H]2O)c(=O)n1; experiment: ADK activity, coupled reaction with PK and LDH; type: biochemical, Zea mays; settings: other: ZmADK2, 10 mM ATP, pH 7.5, 30 °C
Experimental: as §2

B1: PpADK1 (Physcomitrium patens) (protein)
chain: MASEGVLLGMGNPLLDISCVVDDAFLEKYGLTLNNAILAEDKHLPMYKELAANPDVEYIAGGATQNTIRIAQWMLGESNATSYFGCVGKDEYGDRMFKLASEGGVNIRYDVDEDLPTGTCGVLVVKGERSLVANLSAANKYKIDHLKKPENWAFVEKAKYIYSAGFFLTVSPESMMTVAKHAAETGKYYMINLAAPFICQFFKDPLMELFPYVDFIFGNESEARAFAQVQGWETEDTKVIAVKLAALPKAGGTHKRVAVITQGTDPTIVAEDGKVTEFPVTPIPKEKLVDTNAAGDSFVGGFLSQLVLGKDIAQCVRAGNYAASVIIQRSGCTFPSKPSFESQ
notes: made in house; host or cells: E. coli T7 Express Iq
Km [1]: 12.1 ± 2.5 µM
Km [2]: 0.71 ± 0.05 µM

B2: ZmADK1 (Zea mays) (protein)
chain: MAASEGVLLGMGNPLLDISAVVDDAFLAKYDIKLNNAILAEEKHSPMYDELASNSNVEYIAGGATQNSIRVAQWMLQTPGATSYMGCIGKDKFGEEMKKNAQAAGVTAHYYEDETAPTGTCAVCVVGGERSLIANLSAANCYKSEHLKRPENWALVEKAKYIYIAGFFLTVSPDSIQLVAEHAAANNKVFLMNLSAPFICEFFYDAQEKVLPYADFIFGNETEAKIFAKVRGWETENVEEIALKISQLPLASGKQKRIAVITQGADPVVVAEDGKVKTFPVILLPKEKLVDTNGAGDAFVGGFLSRLVQGKSIEDCVTAGCYAANVVIQRPGCTYPEKPDFN
Km ([3]; other: ZmADK1, 10 mM ATP): 0.62 ± 0.11 µM

B3: PpADK2 (Physcomitrium patens) (protein)
chain: MASEGVLLGMGNPLLDISCVVDEAFLEKYGLTLNNAILAEDKHLPIYKELAGRPDVEYIAGGATQNTIRIAQWMLREPKATSYIGCVGKDEFGDRMYKLASEGGVNIQYDVDEELPTGTCGVLVVKGERSLVANLSAAKKYKIDHLKKPENWVCVERAKFIYSSGFFLAVSPESMMTVARHAAETGKYYMINLAAPFICQFKDLMELFPYVDFIFGNESEARTFAQVQGWETEDTKIIAVKLAALPKASGTHKRVAVITQGTDPTIVSVDGQVTEIPITVIPKNKLVDTNAAGDAFVGGFLSQLVLGKDIVECVRAGNYASSIIIQRSGCTFPLKPCFQSE
Km ([3]; other: PpADK2, 10 mM ATP): 0.54 ± 0.05 µM

B4: ZmADK2 (Zea mays; T4S) (protein)
chain: MAASEGVLLGMGNPLLDISAVVDDAFLTKYDIKLNNAILAEEKHLPMYDELASKSNVEYIAGGATQNSIRVAQWMLQTPGATSYMGCIGKDKFGEEMKKNAQAAGVTAHYYEDETAPTGTCAVCVVGGERSLIANLSAANCYKSEHLKRPENWALVEKAKYIYIAGFFLTVSPDSIQLVAEHAAANNKVFLMNLSAPFICEFFRDAQEKVLPYADYIFGNETEAKIFAKVRGWETENIEEIALKISQLPLASGKQKRIAVITQGADPVVVAEDGKVKTFPVILLPKEKLVDTNGAGDAFVGGFLSQLVLGKGIEDCVRAGCYAANVIIQRPGCTYPEKPDFN
Km [4]: 9.8 ± 1.5 µM
Km [5]: 524 ± 51 µM
kcat [5]: 0.24 ± 0.02 s⁻¹
Km [6]: 218 ± 23 µM
kcat [6]: 0.48 ± 0.02 s⁻¹
Km [7]: 178 ± 10 µM
kcat [7]: 0.55 ± 0.01 s⁻¹
Km [8]: 420 ± 44 µM
kcat [8]: 0.57 ± 0.02 s⁻¹
Km [9]: 170 µM and 173 ± 11 µM
kcat [9]: 0.43 ± 0.01 s⁻¹
Km [10]: 0.65 ± 0.09 µM
Km [11]: 313 ± 28 µM
kcat [11]: 0.23 ± 0.01 s⁻¹
